Measurements: patent US20240398804

Biological target: YAP1 Y357F (UniProt P46937)

Substance	YAP1 tyrosine phosphorylation (immunoprecipitation, immunoblot)
WT SRC (expressed from plasmid in 293T cells)	Under conditions where YES1 or SRC phosphorylated YAP1, we failed to detect phosphorylation of the YAP1 Y357F mutant
YES1 (Yamaguchi sarcoma viral oncogene homolog 1)	Under conditions where YES1 or SRC phosphorylated YAP1, we failed to detect phosphorylation of the YAP1 Y357F mutant
